Kd data for one substance are collected here from PMC12857291.

Assay [1] deals with MeCP2-MBD domain wild-type, C-terminal 6xHis-tagged (UniProt P51608). Briefly: ITC; MicroCal PEAQ-ITC, 15 °C, 750 rpm; peptide (1.5 to 2 mM) in the syringe injected into protein (80 to 100 μM) in the cell; 50 mM HEPES pH 7.5, 200 mM NaCl, 5% glycerol; single-binding site model.
Assay [2] concerns the target MeCP2-MBD aromatic cage mutants, W104, F132, Y141, F142 and F155 to alanine (group as printed for the range of KD limits). Described as above.

Some results are limits rather than exact numbers.

Chain of MeCP2-MBD domain wild-type, C-terminal 6xHis-tagged (P51608 90-162): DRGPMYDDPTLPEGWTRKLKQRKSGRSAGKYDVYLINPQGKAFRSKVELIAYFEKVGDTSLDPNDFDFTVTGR

In general, Kd refers to the concentration at which binding is half-saturated. Higher therefore signals weaker binding. In the case of “histone H3(15-36)K27me3 peptide (from UniProt P68431 16-37)”, the Kd in assay [1] was 5.2 µM; in assay [2], above 1000 µM.
